Where a chain is given by its changes, count along the chain named.
T1: APBA2_2, Q99767
T1 sequence (Q99767 654-744, limits assumed, looked up): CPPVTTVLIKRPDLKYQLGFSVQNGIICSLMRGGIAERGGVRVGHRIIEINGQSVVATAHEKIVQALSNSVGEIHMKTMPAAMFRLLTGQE

T2: ARHGAP21, Q5T5U3
T2 sequence (Q5T5U3 45-169, limits assumed, looked up): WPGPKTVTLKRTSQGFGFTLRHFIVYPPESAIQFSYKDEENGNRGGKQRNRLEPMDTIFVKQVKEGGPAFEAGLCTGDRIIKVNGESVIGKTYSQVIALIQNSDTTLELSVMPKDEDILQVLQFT

T3: GRIP1_4, Q9Y3R0
T3 sequence (Q9Y3R0 467-571, limits assumed, looked up): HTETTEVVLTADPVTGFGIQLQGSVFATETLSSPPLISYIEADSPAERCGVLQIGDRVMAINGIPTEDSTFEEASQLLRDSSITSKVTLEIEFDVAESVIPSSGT

T4: HTRA4, P83105
T4 sequence (P83105 378-476, limits assumed, looked up): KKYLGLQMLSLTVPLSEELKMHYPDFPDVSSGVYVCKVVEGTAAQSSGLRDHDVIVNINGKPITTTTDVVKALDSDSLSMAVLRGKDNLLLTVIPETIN

T5: LIN7B, Q9HAP6
T5 sequence (Q9HAP6 88-185, limits assumed, looked up): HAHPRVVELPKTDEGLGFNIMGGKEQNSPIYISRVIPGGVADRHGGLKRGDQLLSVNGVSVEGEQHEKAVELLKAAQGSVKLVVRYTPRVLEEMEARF

T6: LIN7C, Q9NUP9
T6 sequence (Q9NUP9 88-185, limits assumed, looked up): T5 sequence (Q9HAP6 88-185, limits assumed, looked up) with A2S, D13E, V35I, V40I, Q65H, S79K, R89K, A96S

T7: LNX2_3, Q8N448
T7 sequence (Q8N448 463-564, limits assumed, looked up): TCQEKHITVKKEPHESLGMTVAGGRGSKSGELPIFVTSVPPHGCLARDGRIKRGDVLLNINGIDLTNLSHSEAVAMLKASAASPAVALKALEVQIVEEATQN

T8: NHERF3_4, Q5T2W1
T8 sequence (Q5T2W1 373-468, limits assumed, looked up): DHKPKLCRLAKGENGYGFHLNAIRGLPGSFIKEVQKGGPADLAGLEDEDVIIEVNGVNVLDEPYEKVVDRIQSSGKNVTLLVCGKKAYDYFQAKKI

T9: PDZD2_2, O15018
T9 sequence (O15018 329-429, limits assumed, looked up): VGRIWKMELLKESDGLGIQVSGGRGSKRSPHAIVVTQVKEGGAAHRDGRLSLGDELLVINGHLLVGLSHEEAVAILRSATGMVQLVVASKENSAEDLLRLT

T10: PDZRN3_1, Q9UPQ7
T10 sequence (Q9UPQ7 244-349, limits assumed, looked up): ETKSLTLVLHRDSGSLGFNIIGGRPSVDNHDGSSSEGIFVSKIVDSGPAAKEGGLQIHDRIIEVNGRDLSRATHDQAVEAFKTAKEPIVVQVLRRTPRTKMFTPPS

T11: SNTB1, Q13884
T11 sequence (Q13884 107-205, limits assumed, looked up): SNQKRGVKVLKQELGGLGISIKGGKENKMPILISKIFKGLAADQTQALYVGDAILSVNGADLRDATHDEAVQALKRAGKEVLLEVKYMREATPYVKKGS

T12: SNTG2, Q9NY99
T12 sequence (Q9NY99 68-166, limits assumed, looked up): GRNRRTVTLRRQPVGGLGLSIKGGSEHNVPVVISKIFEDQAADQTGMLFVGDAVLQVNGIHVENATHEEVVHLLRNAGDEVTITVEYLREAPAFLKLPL

B1: AQP6, Q13520 (peptide)
chain: GSGAVEMESV
B2: BANF1, O75531 (peptide)
chain: CLREWCDAFL

Each binder was assayed against T1, APBA2_2, Q99767 (assay: holdup assay). Settings: plain residues with an end cap or a label only (N-terminal biotin on a linker: ado-ado).
Parameters: key: below the threshold = too weak to quantify, mostly under pKd 3.1 to 4
B1 was tested, and the pKd was “below the threshold”. For B2, the pKd was “below the threshold”.

These binders were tested against T2, ARHGAP21, Q5T5U3 (assay: holdup assay). Settings: plain residues with an end cap or a label only (N-terminal biotin on a linker: ado-ado).
Parameters: key: below the threshold = too weak to quantify, mostly under pKd 3.1 to 4
Work on B1 yielded a pKd of 3.91. B2 was tested, and the pKd was 4.41.

The binders below were run against DLG1_2, Q12959 (assay: holdup assay). Settings: plain residues with an end cap or a label only (N-terminal biotin on a linker: ado-ado).
Chain of DLG1_2, Q12959 (Q12959 314-412): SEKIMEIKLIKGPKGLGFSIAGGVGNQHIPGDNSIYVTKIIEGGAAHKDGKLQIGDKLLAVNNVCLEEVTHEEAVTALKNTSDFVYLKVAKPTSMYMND
Parameters: key: below the threshold = too weak to quantify, mostly under pKd 3.1 to 4
In the case of B1, the pKd is reported as “below the threshold”. For B2, the pKd was “below the threshold”.

Each binder was assayed against DLG1_3, Q12959 (assay: holdup assay). Settings: plain residues with an end cap or a label only (N-terminal biotin on a linker: ado-ado).
Chain of DLG1_3, Q12959 (Q12959 457-571): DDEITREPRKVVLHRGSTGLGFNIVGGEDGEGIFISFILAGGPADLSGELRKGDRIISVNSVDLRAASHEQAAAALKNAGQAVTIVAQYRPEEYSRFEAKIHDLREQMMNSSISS
Parameters: key: below the threshold = too weak to quantify, mostly under pKd 3.1 to 4
In the case of B1, the pKd is reported as “below the threshold”. With B2 the pKd was “below the threshold”.

The binders below were run against DLG4_3, P78352 (assay: holdup assay). Settings: plain residues with an end cap or a label only (N-terminal biotin on a linker: ado-ado).
Chain of DLG4_3, P78352 (P78352 306-403): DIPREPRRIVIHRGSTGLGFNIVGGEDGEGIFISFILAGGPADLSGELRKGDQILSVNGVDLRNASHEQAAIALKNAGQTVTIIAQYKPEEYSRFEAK
Parameters: key: below the threshold = too weak to quantify, mostly under pKd 3.1 to 4
For B1, the pKd was “below the threshold”. With B2 the pKd was “below the threshold”.

These binders were tested against FRMPD2_1, Q68DX3 (assay: holdup assay). Settings: plain residues with an end cap or a label only (N-terminal biotin on a linker: ado-ado).
Chain of FRMPD2_1, Q68DX3 (Q68DX3 770-861): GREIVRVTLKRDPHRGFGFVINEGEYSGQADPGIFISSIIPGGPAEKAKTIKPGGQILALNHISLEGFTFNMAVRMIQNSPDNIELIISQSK
Parameters: key: below the threshold = too weak to quantify, mostly under pKd 3.1 to 4
With B1 the pKd was “below the threshold”. For B2, the pKd was “below the threshold”.

What follows are binders tested against T3, GRIP1_4, Q9Y3R0 (assay: holdup assay). Settings: plain residues with an end cap or a label only (N-terminal biotin on a linker: ado-ado).
Parameters: key: below the threshold = too weak to quantify, mostly under pKd 3.1 to 4
For B1, the pKd was “below the threshold”. B2 was tested, and the pKd was “below the threshold”.

What follows are binders tested against T4, HTRA4, P83105 (assay: holdup assay). Settings: plain residues with an end cap or a label only (N-terminal biotin on a linker: ado-ado).
Parameters: key: below the threshold = too weak to quantify, mostly under pKd 3.1 to 4
B1 was tested, and the pKd was 3.88. Binder B2 has a pKd of 3.64.

Each binder was assayed against IL16_4, Q14005 (assay: holdup assay). Settings: plain residues with an end cap or a label only (N-terminal biotin on a linker: ado-ado).
Chain of IL16_4, Q14005 (Q14005 1229-1329): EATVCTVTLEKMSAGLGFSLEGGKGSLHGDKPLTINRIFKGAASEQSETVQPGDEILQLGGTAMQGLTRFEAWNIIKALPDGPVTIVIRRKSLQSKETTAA
Parameters: key: below the threshold = too weak to quantify, mostly under pKd 3.1 to 4
In the case of B1, the pKd is reported as “below the threshold”. For B2, the pKd was “below the threshold”.

Each binder was assayed against Inadl_3, Q8NI35 (assay: holdup assay). Settings: plain residues with an end cap or a label only (N-terminal biotin on a linker: ado-ado).
Chain of Inadl_3, Q8NI35 (Q8NI35 359-469): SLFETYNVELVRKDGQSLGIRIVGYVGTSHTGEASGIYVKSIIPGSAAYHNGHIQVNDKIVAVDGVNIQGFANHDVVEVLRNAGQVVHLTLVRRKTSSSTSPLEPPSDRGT
Parameters: key: below the threshold = too weak to quantify, mostly under pKd 3.1 to 4
With B1 the pKd was “below the threshold”. In the case of B2, the pKd is reported as 4.23.

The binders below were run against Inadl_6, Q8NI35 (assay: holdup assay). Settings: plain residues with an end cap or a label only (N-terminal biotin on a linker: ado-ado).
Chain of Inadl_6, Q8NI35 (Q8NI35 1058-1167): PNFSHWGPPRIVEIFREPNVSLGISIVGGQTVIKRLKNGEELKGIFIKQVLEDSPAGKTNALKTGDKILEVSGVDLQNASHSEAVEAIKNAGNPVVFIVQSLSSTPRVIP
Parameters: key: below the threshold = too weak to quantify, mostly under pKd 3.1 to 4
B1 was tested, and the pKd was “below the threshold”. For B2, the pKd was 4.32.

These binders were tested against LAP2, Q96RT1 (assay: holdup assay). Settings: plain residues with an end cap or a label only (N-terminal biotin on a linker: ado-ado).
Chain of LAP2, Q96RT1 (Q96RT1 other isoform, or with tags, fused parts or gaps): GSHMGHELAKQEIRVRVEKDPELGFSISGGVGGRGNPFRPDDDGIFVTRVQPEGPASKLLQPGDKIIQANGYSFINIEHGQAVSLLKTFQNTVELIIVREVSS
Parameters: key: below the threshold = too weak to quantify, mostly under pKd 3.1 to 4
B1 was tested, and the pKd was “below the threshold”. B2 showed a pKd of 3.69.

These binders were tested against T5, LIN7B, Q9HAP6 (assay: holdup assay). Settings: plain residues with an end cap or a label only (N-terminal biotin on a linker: ado-ado).
Parameters: key: below the threshold = too weak to quantify, mostly under pKd 3.1 to 4
For B1, the pKd was “below the threshold”. For B2, the pKd was 3.94.

What follows are binders tested against T6, LIN7C, Q9NUP9 (assay: holdup assay). Settings: plain residues with an end cap or a label only (N-terminal biotin on a linker: ado-ado).
Parameters: key: below the threshold = too weak to quantify, mostly under pKd 3.1 to 4
B1 was tested, and the pKd was “below the threshold”. B2 was tested, and the pKd was 3.66.

What follows are binders tested against LNX1_2, Q8TBB1 (assay: holdup assay). Settings: plain residues with an end cap or a label only (N-terminal biotin on a linker: ado-ado).
Chain of LNX1_2, Q8TBB1 (Q8TBB1 371-470): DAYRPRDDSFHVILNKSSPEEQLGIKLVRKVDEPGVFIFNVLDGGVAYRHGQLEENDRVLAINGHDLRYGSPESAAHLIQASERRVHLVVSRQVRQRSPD
Parameters: key: below the threshold = too weak to quantify, mostly under pKd 3.1 to 4
For B1, the pKd was “below the threshold”. With B2 the pKd was “below the threshold”.

What follows are binders tested against LNX1_3, Q8TBB1 (assay: holdup assay). Settings: plain residues with an end cap or a label only (N-terminal biotin on a linker: ado-ado).
Chain of LNX1_3, Q8TBB1 (Q8TBB1 500-596): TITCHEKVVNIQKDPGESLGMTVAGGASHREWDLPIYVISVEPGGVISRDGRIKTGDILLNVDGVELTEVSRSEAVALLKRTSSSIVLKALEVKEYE
Parameters: key: below the threshold = too weak to quantify, mostly under pKd 3.1 to 4
B1 was tested, and the pKd was “below the threshold”. In the case of B2, the pKd is reported as “below the threshold”.

These binders were tested against T7, LNX2_3, Q8N448 (assay: holdup assay). Settings: plain residues with an end cap or a label only (N-terminal biotin on a linker: ado-ado).
Parameters: key: below the threshold = too weak to quantify, mostly under pKd 3.1 to 4
In the case of B1, the pKd is reported as “below the threshold”. B2 was tested, and the pKd was “below the threshold”.

These binders were tested against MAGI2_4, Q86UL8 (assay: holdup assay). Settings: plain residues with an end cap or a label only (N-terminal biotin on a linker: ado-ado).
Chain of MAGI2_4, Q86UL8 (Q86UL8 772-865): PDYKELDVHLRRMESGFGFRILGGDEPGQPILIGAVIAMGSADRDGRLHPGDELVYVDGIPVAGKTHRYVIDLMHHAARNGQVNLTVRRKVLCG
Parameters: key: below the threshold = too weak to quantify, mostly under pKd 3.1 to 4
In the case of B1, the pKd is reported as “below the threshold”. With B2 the pKd was 3.73.

Each binder was assayed against T8, NHERF3_4, Q5T2W1 (assay: holdup assay). Settings: plain residues with an end cap or a label only (N-terminal biotin on a linker: ado-ado).
Parameters: key: below the threshold = too weak to quantify, mostly under pKd 3.1 to 4
With B1 the pKd was “below the threshold”. For B2, the pKd was 3.62.

These binders were tested against T9, PDZD2_2, O15018 (assay: holdup assay). Settings: plain residues with an end cap or a label only (N-terminal biotin on a linker: ado-ado).
Parameters: key: below the threshold = too weak to quantify, mostly under pKd 3.1 to 4
For B1, the pKd was 3.7. B2 was tested, and the pKd was “below the threshold”.

Each binder was assayed against T10, PDZRN3_1, Q9UPQ7 (assay: holdup assay). Settings: plain residues with an end cap or a label only (N-terminal biotin on a linker: ado-ado).
Parameters: key: below the threshold = too weak to quantify, mostly under pKd 3.1 to 4
With B1 the pKd was “below the threshold”. For B2, the pKd was “below the threshold”.

Each binder was assayed against SCRIB_2, Q14160 (assay: holdup assay). Settings: plain residues with an end cap or a label only (N-terminal biotin on a linker: ado-ado).
Chain of SCRIB_2, Q14160 (Q14160 857-960): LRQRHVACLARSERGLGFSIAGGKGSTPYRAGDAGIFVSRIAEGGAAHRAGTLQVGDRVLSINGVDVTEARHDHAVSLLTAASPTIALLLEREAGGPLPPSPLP
Parameters: key: below the threshold = too weak to quantify, mostly under pKd 3.1 to 4
With B1 the pKd was “below the threshold”. In the case of B2, the pKd is reported as “below the threshold”.

These binders were tested against T11, SNTB1, Q13884 (assay: holdup assay). Settings: plain residues with an end cap or a label only (N-terminal biotin on a linker: ado-ado).
Parameters: key: below the threshold = too weak to quantify, mostly under pKd 3.1 to 4
B1 was tested, and the pKd was “below the threshold”. B2 was tested, and the pKd was “below the threshold”.

These binders were tested against T12, SNTG2, Q9NY99 (assay: holdup assay). Settings: plain residues with an end cap or a label only (N-terminal biotin on a linker: ado-ado).
Parameters: key: below the threshold = too weak to quantify, mostly under pKd 3.1 to 4
For B1, the pKd was “below the threshold”. With B2 the pKd was “below the threshold”.

These binders were tested against TJP1_3, Q07157 (assay: holdup assay). Settings: plain residues with an end cap or a label only (N-terminal biotin on a linker: ado-ado).
Chain of TJP1_3, Q07157 (Q07157 416-512): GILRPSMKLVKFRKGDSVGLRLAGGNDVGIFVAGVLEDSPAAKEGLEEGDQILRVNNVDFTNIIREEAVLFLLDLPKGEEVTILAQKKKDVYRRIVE
Parameters: key: below the threshold = too weak to quantify, mostly under pKd 3.1 to 4
For B1, the pKd was “below the threshold”. B2 was tested, and the pKd was “below the threshold”.

Reference: article PMC9482650, “Quantitative fragmentomics allow affinity mapping of interactomes” (Nature Communications, 2022)
